Data reported in the supplement of paper PMC9112550, “Optimization of the antimicrobial peptide Bac7 by deep mutational scanning” (BMC Biology, 2022).

These sequences were tested on Escherichia coli TOP10 (assay: shrunken log2 fold change of peptide-encoding DNA abundance (4.5 h post-induction vs induction); higher = less antimicrobial activity (less host growth inhibition)). Conditions: time post-induction: 4.5 h; library: site-saturation at positions 5, 18, 19, 20.
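Note: peptides expressed intracellularly from a pBAD plasmid library in pooled LB shake-flask culture, induced with 0.3% L-arabinose, DNA abundance read by NGS, three biological replicates, DESeq2 with apeglm shrinkage.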

| Sequence | shrunken log2 fold change |
| --- | --- |
| RRIRSRPPRLPRPRPRPYETPRP | -0.181 |
| RRIRSRPPRLPRPRPRPGVQPRP | -0.0497 |
| RRIRNRPPRLPRPRPRPALCPRP | -0.0208 |
| RRIRIRPPRLPRPRPRPSNEPRP | -0.945 |
| RRIRWRPPRLPRPRPRPRCRPRP | 0.371 |
| RRIRPRPPRLPRPRPRPIAKPRP | 0.0454 |
| RRIRVRPPRLPRPRPRPCVVPRP | 0.0226 |
| RRIRFRPPRLPRPRPRPVVDPRP | -0.232 |
| RRIRKRPPRLPRPRPRPGQMPRP | 0.00812 |
| RRIRQRPPRLPRPRPRPDSEPRP | 0.138 |
| RRIRFRPPRLPRPRPRPDEDPRP | 0.181 |
| RRIRVRPPRLPRPRPRPVTQPRP | 0.12 |
| RRIRKRPPRLPRPRPRPVGCPRP | 0.266 |
| RRIRSRPPRLPRPRPRPVCFPRP | 0.156 |
| RRIRTRPPRLPRPRPRPCGWPRP | 0.0147 |
| RRIRRRPPRLPRPRPRPKLDPRP | 0.523 |
| RRIRHRPPRLPRPRPRPNTNPRP | -0.74 |
| RRIRRRPPRLPRPRPRPWFLPRP | -0.19 |
| RRIRQRPPRLPRPRPRPHNNPRP | -0.748 |
| RRIRSRPPRLPRPRPRPHQKPRP | -0.189 |
| RRIRKRPPRLPRPRPRPWHAPRP | -0.0686 |
| RRIRFRPPRLPRPRPRPLSSPRP | -0.307 |
| RRIRIRPPRLPRPRPRPVVEPRP | -0.0638 |
| RRIRWRPPRLPRPRPRPRIGPRP | 0.138 |
| RRIRCRPPRLPRPRPRPPFTPRP | -0.15 |

| Sequence | shrunken log2 fold change |
| --- | --- |
| RRIRIRPPRLPRPRPRPWTTPRP | -0.102 |
| RRIRGRPPRLPRPRPRPQVPPRP | -0.0856 |
| RRIRHRPPRLPRPRPRPDSQPRP | -0.194 |
| RRIRQRPPRLPRPRPRPAAPPRP | 0.243 |
| RRIRHRPPRLPRPRPRPTSAPRP | 0.0939 |
| RRIRFRPPRLPRPRPRPKRLPRP | 0.0144 |
| RRIRGRPPRLPRPRPRPFQIPRP | -0.0147 |
| RRIRARPPRLPRPRPRPHGSPRP | -0.071 |
| RRIRPRPPRLPRPRPRPGHYPRP | -0.0973 |
| RRIRMRPPRLPRPRPRPTKGPRP | 0.258 |
| RRIRARPPRLPRPRPRPCAMPRP | 0.397 |
| RRIRKRPPRLPRPRPRPAWDPRP | 0.497 |
| RRIRYRPPRLPRPRPRPKLMPRP | -0.115 |
| RRIRKRPPRLPRPRPRPGWVPRP | 0.573 |
| RRIRHRPPRLPRPRPRPMYRPRP | -0.0948 |
| RRIRYRPPRLPRPRPRPQEIPRP | -0.507 |
| RRIRDRPPRLPRPRPRPYAAPRP | -0.2 |
| RRIRLRPPRLPRPRPRPKMLPRP | -0.0541 |
| RRIRQRPPRLPRPRPRPKEYPRP | 0.0124 |
| RRIRYRPPRLPRPRPRPKKCPRP | -0.0883 |
| RRIRCRPPRLPRPRPRPIQPPRP | -0.137 |
| RRIRKRPPRLPRPRPRPSHDPRP | -0.203 |
| RRIRGRPPRLPRPRPRPDGEPRP | 0.259 |
| RRIRWRPPRLPRPRPRPMNEPRP | 0.0689 |
| RRIRSRPPRLPRPRPRPPNLPRP | -0.148 |

| Sequence | shrunken log2 fold change |
| --- | --- |
| RRIRSRPPRLPRPRPRPNMIPRP | -0.429 |
| RRIRNRPPRLPRPRPRPQPRPRP | 0.507 |
| RRIRWRPPRLPRPRPRPWIHPRP | -0.192 |
| RRIRCRPPRLPRPRPRPTQTPRP | 0.286 |
| RRIRCRPPRLPRPRPRPKNYPRP | -0.676 |
| RRIRRRPPRLPRPRPRPFWMPRP | 0.0323 |
| RRIRSRPPRLPRPRPRPHRYPRP | -0.606 |
| RRIRMRPPRLPRPRPRPVLSPRP | 0.0984 |
| RRIRERPPRLPRPRPRPMQDPRP | 0.306 |
| RRIRCRPPRLPRPRPRPDRQPRP | 0.00868 |
| RRIRSRPPRLPRPRPRPTIMPRP | -0.508 |
| RRIRFRPPRLPRPRPRPRLVPRP | 0.207 |
| RRIRTRPPRLPRPRPRPAMIPRP | -0.0108 |
| RRIRNRPPRLPRPRPRPFNMPRP | -0.149 |
| RRIRMRPPRLPRPRPRPRVGPRP | 1.02 |
| RRIRWRPPRLPRPRPRPNCQPRP | -0.14 |
| RRIRNRPPRLPRPRPRPHRFPRP | 0.0175 |
| RRIRPRPPRLPRPRPRPKNAPRP | -0.0349 |
| RRIRARPPRLPRPRPRPYSHPRP | -0.171 |
| RRIRSRPPRLPRPRPRPQEGPRP | -0.0317 |
| RRIRPRPPRLPRPRPRPTPAPRP | 0.618 |
| RRIRDRPPRLPRPRPRPKYIPRP | -0.516 |
| RRIRHRPPRLPRPRPRPYCRPRP | -0.0455 |
| RRIRNRPPRLPRPRPRPGNCPRP | -0.00183 |
| RRIRRRPPRLPRPRPRPVGQPRP | 0.0153 |

| Sequence | shrunken log2 fold change |
| --- | --- |
| RRIRLRPPRLPRPRPRPAVAPRP | 0.552 |
| RRIRMRPPRLPRPRPRPMRPPRP | 1.79 |
| RRIRTRPPRLPRPRPRPPMKPRP | -0.112 |
| RRIRPRPPRLPRPRPRPMCWPRP | 0.156 |
| RRIRVRPPRLPRPRPRPYMIPRP | -0.904 |
| RRIRWRPPRLPRPRPRPWMGPRP | 0.0275 |
| RRIRPRPPRLPRPRPRPIYVPRP | -0.348 |
| RRIRGRPPRLPRPRPRPFCIPRP | 0.494 |
| RRIRVRPPRLPRPRPRPSYMPRP | -1.16 |
| RRIRYRPPRLPRPRPRPRLLPRP | -0.0826 |
| RRIRQRPPRLPRPRPRPYQVPRP | -0.0417 |
| RRIRQRPPRLPRPRPRPRDKPRP | 0.00325 |
| RRIRLRPPRLPRPRPRPLLWPRP | 0.195 |
| RRIRLRPPRLPRPRPRPKFFPRP | 0.002 |
| RRIRNRPPRLPRPRPRPKVFPRP | 0.0215 |
| RRIRSRPPRLPRPRPRPHPTPRP | 0.129 |
| RRIRNRPPRLPRPRPRPPVFPRP | 0.15 |
| RRIRIRPPRLPRPRPRPPFKPRP | 0.228 |
| RRIRLRPPRLPRPRPRPSQIPRP | 0.0199 |
| RRIRDRPPRLPRPRPRPPMFPRP | 0.216 |
| RRIRYRPPRLPRPRPRPFDIPRP | 0.0167 |
| RRIRTRPPRLPRPRPRPIVIPRP | -0.054 |
| RRIRWRPPRLPRPRPRPCLHPRP | -0.01 |
| RRIRYRPPRLPRPRPRPQEDPRP | -0.135 |
| RRIRDRPPRLPRPRPRPHFSPRP | -0.0977 |

| Sequence | shrunken log2 fold change |
| --- | --- |
| RRIRMRPPRLPRPRPRPRDAPRP | 1.49 |
| RRIRTRPPRLPRPRPRPDWNPRP | -0.39 |
| RRIRERPPRLPRPRPRPWWQPRP | -0.0206 |
| RRIRVRPPRLPRPRPRPGMNPRP | -0.145 |
| RRIRTRPPRLPRPRPRPVDNPRP | -0.0554 |
| RRIRPRPPRLPRPRPRPLMCPRP | -0.122 |
| RRIRFRPPRLPRPRPRPAVLPRP | 0.107 |
| RRIRVRPPRLPRPRPRPYAKPRP | -0.0931 |
| RRIRSRPPRLPRPRPRPGQDPRP | -0.329 |
| RRIRKRPPRLPRPRPRPLTTPRP | 0.539 |
| RRIRKRPPRLPRPRPRPATDPRP | 0.00132 |
| RRIRDRPPRLPRPRPRPEDCPRP | -0.0123 |
| RRIRYRPPRLPRPRPRPCMEPRP | -0.0771 |
| RRIRLRPPRLPRPRPRPIKEPRP | -0.0262 |
| RRIRTRPPRLPRPRPRPDQQPRP | -0.0173 |
| RRIRNRPPRLPRPRPRPHLVPRP | -0.0893 |
| RRIRRRPPRLPRPRPRPLNWPRP | 0.296 |
| RRIRHRPPRLPRPRPRPGFWPRP | 0.0409 |
| RRIRERPPRLPRPRPRPPAHPRP | 0.269 |
| RRIRVRPPRLPRPRPRPIFVPRP | -0.0998 |
| RRIRRRPPRLPRPRPRPGEDPRP | 0.00579 |
| RRIRMRPPRLPRPRPRPQFGPRP | 0.104 |
| RRIRWRPPRLPRPRPRPLTEPRP | 0.251 |
| RRIRQRPPRLPRPRPRPPWWPRP | 0.498 |
| RRIRGRPPRLPRPRPRPMNLPRP | 0.00442 |

| Sequence | shrunken log2 fold change |
| --- | --- |
| RRIRNRPPRLPRPRPRPNDVPRP | -0.00503 |
| RRIRQRPPRLPRPRPRPSPIPRP | -0.0339 |
| RRIRTRPPRLPRPRPRPGHYPRP | -0.137 |
| RRIRVRPPRLPRPRPRPYWQPRP | -0.0663 |
| RRIRTRPPRLPRPRPRPPDAPRP | 0.232 |
| RRIRYRPPRLPRPRPRPPILPRP | -0.498 |
| RRIRFRPPRLPRPRPRPKNEPRP | -0.137 |
| RRIRFRPPRLPRPRPRPKERPRP | 0.193 |
| RRIRMRPPRLPRPRPRPEKMPRP | 1.68 |
| RRIRWRPPRLPRPRPRPDIRPRP | -0.0808 |
| RRIRFRPPRLPRPRPRPIIKPRP | -0.696 |
| RRIRFRPPRLPRPRPRPNTDPRP | -0.384 |
| RRIRYRPPRLPRPRPRPRDEPRP | 0.047 |
| RRIRNRPPRLPRPRPRPHAIPRP | -0.673 |
| RRIRNRPPRLPRPRPRPPDDPRP | 0.123 |
| RRIRIRPPRLPRPRPRPTVMPRP | -0.0131 |
| RRIRSRPPRLPRPRPRPDWEPRP | -0.0106 |
| RRIRIRPPRLPRPRPRPDQMPRP | -0.393 |
| RRIRGRPPRLPRPRPRPWTTPRP | 0.00743 |
| RRIRWRPPRLPRPRPRPTQRPRP | 0.133 |
| RRIRLRPPRLPRPRPRPGDKPRP | 0.00262 |
| RRIRERPPRLPRPRPRPWVHPRP | -0.0432 |
| RRIRTRPPRLPRPRPRPIRMPRP | -0.441 |
| RRIRSRPPRLPRPRPRPILDPRP | -0.152 |
| RRIRMRPPRLPRPRPRPPCSPRP | 0.489 |
